From patent US20240376149A1, “Novel Modulators of GABABR1a” (VIB VZW, priority 2021, published 2024)
Where no end group is shown, it is not given here.

What was measured:
[1] = target: T1, Sushi domain 1 of the human GABA B1a receptor (human, UniProt Q9UBS5 26-96); assay: fluorescence polarization, SD1 titrated against 1.2 µM FITC-9mer; concentration is that of SD1
T1 construct: Purified recombinant protein from E. coli; also called SD1; GABABR1a-SD1

[2] = target: T1, Sushi domain 1 of the human GABA B1a …; assay: fluorescence polarization, SD1 titrated against 3.7 µM FITC-9mer; concentration is that of SD1
[3] = target: T1, Sushi domain 1 of the human GABA B1a …; assay: fluorescence polarization, SD1 titrated against 0.05 µM FITC-9mer; concentration is that of SD1
[4] = target: T1, Sushi domain 1 of the human GABA B1a …; assay: fluorescence polarization, SD1 titrated against 0.14 µM FITC-9mer; concentration is that of SD1
[5] = target: T1, Sushi domain 1 of the human GABA B1a …; assay: fluorescence polarization, SD1 titrated against 0.41 µM FITC-9mer; concentration is that of SD1
[6] = target: T1, Sushi domain 1 of the human GABA B1a …; assay: fluorescence polarization, SD1 titrated against 11.11 µM FITC-9mer; concentration is that of SD1
[7] = target: T1, Sushi domain 1 of the human GABA B1a …; assay: ITC, peptide titrated into purified SD1
Protocol: First, we wondered whether the wild-type sAPP 9-mer peptide would be the optimal sequence in terms of SD1 binding or whether sequence variants of the sAPP 9-mer would have improved binding to the GABABR1a-SD1. Therefore a panel of single and double sAPP 9-mer mutants was generated. An alanine scan was performed for the residues on position 1 to position 7. Based on an ITC assay, these single mutant peptides bound the SD1 with the same or slightly higher Kd (Table 1). Also the double mutants VIB_P04, VIB_P05 and VIB_P19 bound with a similar Kd to SD1 compared to the wild-type 9-mer. We have also tested the effect of the D-isomer of the amino residues on position 1 to 4, in single or multiple combinations. None of the mutations had strong effects on the measured Kd (Table 1). We therefore conclude that the wild-type sAPP 9-mer is already optimized but that many variants bind as good to SD1 and thus will modulate GABABR1a in a similar manner.
The Sushi-1 protein was dialysed overnight to PBS buffer and diluted to 30 μM in the same buffer. The peptides were resuspended in PBS at a stock concentration of 3 mM and diluted further in the same buffer to 300 μM. ITC experiments were performed on a Microcal ITC200 device. Titrations comprised 26×1.5 μL injections of peptide into protein, with 90 s intervals. An initial injection of ligand (0.5 μL) was made and discarded during data analysis. The data were fitted to a single binding site model using the Microcal LLC ITC₂₀₀. Original software provided by the manufacturer.

[8] = target: T1, Sushi domain 1 of the human GABA B1a …; assay: FP competition vs FITC-9mer on purified SD1; 9-mer
Protocol: (§1) To screen for GABABR1a binders using unlabelled test compounds, the assay was turned into a competition assay using FITC-9mer. […] To validate this inhibitor assay, the IC50 values were determined of the 17-mer, 9-mer, 5-mer as well as those from 3 negative controls: 10-mer, scrambled 17-mer and a scrambled 9-mer (FIG. 2).
To determine if the peptides of this application were able to disrupt the SD1-9-mer complex, each peptide (in single point or dose-response curve) tested was incubate with SD1 protein for 1 h at RT. After this initially incubation, FITC-9mer was added to the previous mix and incubated during 2 h at RT. The signal intensity was measure in an appropriate plate reader using the following settings: Number of flashes per well: 200; Excitation: F482-16; Dichroic filter: FLP 504; Emission A F530-40; Gain A: 738, Gain B: 736. The assay was conducted in a 384-well plate.

[9] = target: T1, Sushi domain 1 of the human GABA B1a …; assay: FP competition vs FITC-9mer on purified SD1; 17-mer
Protocol: Intrigued by the surprising results of the 5-mer, it was decided to set up a medium- to high-throughput screen to optimize the 5-mer sequence. Several assays were tested to find a reproducible, robust and cost-effective assay that is also suitable for high-throughput screening. A fluorescence polarization (FP) assay was selected. FP measurements are well-known for receptor binding assays. The assay is based on the rotational movement of fluorescently labelled molecules in solution. […] The FP assay was optimized using the FITC labelled sAPP 9-mer (FIG. 1).
as §1

[10] = target: GABABR1b expressed on cells (UniProt Q9UBS5-2 30-474, limits assumed); assay: cell-based binding assay, flow cytometry
Sequence of GABABR1b expressed on cells (Q9UBS5 other isoform, or with tags, fused parts or gaps limits assumed): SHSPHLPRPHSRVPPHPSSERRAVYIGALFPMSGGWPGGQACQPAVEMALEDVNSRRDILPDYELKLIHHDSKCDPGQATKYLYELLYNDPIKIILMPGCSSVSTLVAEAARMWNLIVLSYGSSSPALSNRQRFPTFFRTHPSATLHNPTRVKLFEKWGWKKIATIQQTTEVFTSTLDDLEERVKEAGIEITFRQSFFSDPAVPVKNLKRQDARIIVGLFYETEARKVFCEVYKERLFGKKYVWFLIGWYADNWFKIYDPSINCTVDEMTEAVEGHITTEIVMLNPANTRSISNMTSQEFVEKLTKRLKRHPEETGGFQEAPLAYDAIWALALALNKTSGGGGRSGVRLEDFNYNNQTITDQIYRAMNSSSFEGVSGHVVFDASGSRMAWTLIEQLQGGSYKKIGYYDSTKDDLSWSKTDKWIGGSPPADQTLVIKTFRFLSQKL

T1 sequence (Q9UBS5 26-96 limits assumed): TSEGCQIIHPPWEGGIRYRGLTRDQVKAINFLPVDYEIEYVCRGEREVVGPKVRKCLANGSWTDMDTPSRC

B1: FITC labelled sAPP 9-mer (peptide)
peptide: DDSDVWWGG
modifications: also: FITC label, site not given here
notes: also called FITC-9mer
- EC50 (read off the curve) [1]: ~2 µM
- EC50 (read off the curve) [2]: ~4 µM
- EC50 (read off the curve) [3]: ~800 nM
- EC50 (read off the curve) [4]: ~1000 nM
- EC50 (read off the curve) [5]: ~1000 nM
- EC50 (read off the curve) [6]: ~8 µM

B2: wild-type sAPP 9-mer (peptide)
peptide: DDSDVWWGG
notes: Unlabelled
- Kd [7]: 3000 nM
- IC50 [8]: 11 µM

B3: wild-type sAPP 17-mer (peptide)
peptide: DDSDVWWGGADTDYADG
- IC50 [9]: 1700 nM

B4: 9-mer tagged with Biotin (peptide)
peptide: DDSDVWWGG
modifications: also: biotin tag, site not given here
notes: also called biotin-9mer; biotion-9mer
- binding result [10]: no binding
